Literature values, collected in PMC10215765.

Target: Band 3 cytoplasmic N-terminal domain (Homo sapiens) (UniProt P02730)
UniProt P02730, sequence (P02730 1-379): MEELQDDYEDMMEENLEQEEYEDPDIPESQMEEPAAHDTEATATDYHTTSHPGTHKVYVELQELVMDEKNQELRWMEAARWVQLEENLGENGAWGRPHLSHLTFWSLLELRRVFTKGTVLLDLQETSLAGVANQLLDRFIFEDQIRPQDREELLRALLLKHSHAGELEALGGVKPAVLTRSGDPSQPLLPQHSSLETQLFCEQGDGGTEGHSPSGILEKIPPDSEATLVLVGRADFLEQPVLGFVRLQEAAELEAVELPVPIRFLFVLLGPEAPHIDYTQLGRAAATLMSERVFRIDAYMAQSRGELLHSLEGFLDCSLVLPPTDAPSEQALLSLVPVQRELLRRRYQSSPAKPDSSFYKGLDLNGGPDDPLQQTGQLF

Kd: 0.034 µM
Substance: Peroxiredoxin 2 (from UniProt P32119)
